# T1: Arid5a (Mus musculus, UniProt Q3U108 1-590)
# T1 sequence: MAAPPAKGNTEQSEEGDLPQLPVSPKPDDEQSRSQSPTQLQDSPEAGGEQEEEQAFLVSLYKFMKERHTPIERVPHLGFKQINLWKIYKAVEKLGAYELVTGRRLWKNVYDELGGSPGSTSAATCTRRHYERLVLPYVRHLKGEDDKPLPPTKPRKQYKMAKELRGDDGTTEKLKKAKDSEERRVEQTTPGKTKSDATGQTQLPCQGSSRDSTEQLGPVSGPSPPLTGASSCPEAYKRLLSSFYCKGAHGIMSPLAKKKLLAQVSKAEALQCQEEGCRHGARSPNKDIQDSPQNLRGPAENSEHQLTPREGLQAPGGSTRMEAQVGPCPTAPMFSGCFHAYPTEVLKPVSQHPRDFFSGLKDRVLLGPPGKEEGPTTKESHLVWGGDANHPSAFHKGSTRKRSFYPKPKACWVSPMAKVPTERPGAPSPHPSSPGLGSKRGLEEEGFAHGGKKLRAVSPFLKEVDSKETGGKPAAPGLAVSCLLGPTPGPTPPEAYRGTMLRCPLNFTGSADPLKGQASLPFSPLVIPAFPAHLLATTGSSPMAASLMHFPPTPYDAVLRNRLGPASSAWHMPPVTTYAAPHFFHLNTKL
# T2: Arid5a R128A (Mus musculus, UniProt Q3U108 1-590, R128A)
# T2 sequence: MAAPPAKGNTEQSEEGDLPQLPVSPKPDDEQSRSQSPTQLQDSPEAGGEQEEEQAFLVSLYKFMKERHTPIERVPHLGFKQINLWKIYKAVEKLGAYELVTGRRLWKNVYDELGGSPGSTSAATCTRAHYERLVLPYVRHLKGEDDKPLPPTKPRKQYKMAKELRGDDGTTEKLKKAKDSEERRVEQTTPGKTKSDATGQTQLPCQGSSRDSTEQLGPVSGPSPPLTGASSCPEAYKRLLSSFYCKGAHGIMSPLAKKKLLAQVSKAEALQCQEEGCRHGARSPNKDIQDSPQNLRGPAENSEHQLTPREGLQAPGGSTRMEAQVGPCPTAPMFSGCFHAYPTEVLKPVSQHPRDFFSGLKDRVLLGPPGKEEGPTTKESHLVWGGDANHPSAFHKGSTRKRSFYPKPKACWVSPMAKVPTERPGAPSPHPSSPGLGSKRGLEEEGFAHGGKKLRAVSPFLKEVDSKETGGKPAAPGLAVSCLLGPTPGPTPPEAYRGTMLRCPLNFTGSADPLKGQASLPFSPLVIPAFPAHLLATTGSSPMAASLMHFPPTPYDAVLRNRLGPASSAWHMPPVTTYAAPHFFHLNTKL
# Tests used:
# Arid5a = target: T1, Arid5a; assay: EMSA
# Arid5a R128A = target: T2, Arid5a R128A; assay: EMSA
Binder,binding result (Arid5a),binding result (Arid5a R128A)
UGCACACCCUUGUGUUCUGGCCACUGCA (structured_RNA) [mutant stem-loop STAT3 3'UTR (1738-1765)],no binding,
UGCAGUGGCUUGUGUUCUGGCCACUGCA (structured_RNA) [STAT3 3'UTR (1738-1765) stem-loop],binds,no binding

# From publication PMC4821647
